This is an account of results in PMC5557850.

The target in assay [1] is FapF coiled-coil peptide D3–Q40 (Pseudomonas sp. UK4). The experiment in a line: SEC-MALS; Superdex 200 HR 10/30 column coupled to multiple laser light scattering; isolated coiled-coil peptide.
In assay [2] the target is full-length FapF (FapF 1–406) (Pseudomonas sp. UK4).
The target is the same in assay [3]. The experiment in a line: native MS; 0.5 M ammonium acetate pH 7.6 with 0.5% C8E4; nano-electrospray, modified Q-Exactive.

As to FapF coiled-coil peptide D3–Q40, the stoichiometry N in assay [1] was found to be 3.

For the substance “full-length FapF (FapF 1–406) (natural protein)”, the single-channel current recording in planar DPhPC bilayers: voltage-induced gating at an applied potential of −250 mV in assay [2] is 3 steps. Further, the stoichiometry N in assay [3] is 3.

The term stoichiometry N denotes a count of units in the complex or per binding partner.
